Assay results taken from the supplement of paper PMC10567573.

B1: IQUB (parent)
chain: KIREKEEWIKLDYHRRHNPKTNED

Variants of: B1
Experiment: protein stability index of a GFP-peptide fusion (GPS, HEK-293T) (PSI 1-6); higher = more stable
Details: c terminus: a fixed tail appended
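Further: lentivirally expressed fusions sorted by FACS into six bins by GFP to DsRed ratio, PSI derived from sequencing read proportions per bin multiplied by bin number.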

| Variant | protein stability index |
| --- | --- |
| KCREKEEWIKLDYHRRHNPKTNED [I2C] | 4.62 |
| KQREKEEWIKLDYHRRHNPKTNED [I2Q] | 4.14 |
| KGREKEEWIKLDYHRRHNPKTNED [I2G] | 5.25 |
| KNREKEEWIKLDYHRRHNPKTNED [I2N] | 5 |
| KSREKEEWIKLDYHRRHNPKTNED [I2S] | 5.09 |
| KRREKEEWIKLDYHRRHNPKTNED [I2R] | 4.58 |
| KHREKEEWIKLDYHRRHNPKTNED [I2H] | 4.91 |
| KEREKEEWIKLDYHRRHNPKTNED [I2E] | 5.32 |
| KDREKEEWIKLDYHRRHNPKTNED [I2D] | 5.17 |
| KVREKEEWIKLDYHRRHNPKTNED [I2V] | 4.67 |
| KFREKEEWIKLDYHRRHNPKTNED [I2F] | 4.19 |
| KKREKEEWIKLDYHRRHNPKTNED [I2K] | 4.8 |
| KWREKEEWIKLDYHRRHNPKTNED [I2W] | 4.26 |
| KMREKEEWIKLDYHRRHNPKTNED [I2M] | 4.72 |
| KLREKEEWIKLDYHRRHNPKTNED [I2L] | 4.74 |
| KPREKEEWIKLDYHRRHNPKTNED [I2P] | 3.84 |
| KAREKEEWIKLDYHRRHNPKTNED [I2A] | 4.88 |
| KYREKEEWIKLDYHRRHNPKTNED [I2Y] | 4.2 |
| KTREKEEWIKLDYHRRHNPKTNED [I2T] | 4.69 |
| KIHEKEEWIKLDYHRRHNPKTNED [R3H] | 4.67 |
| KIFEKEEWIKLDYHRRHNPKTNED [R3F] | 4.3 |
| KIKEKEEWIKLDYHRRHNPKTNED [R3K] | 4.67 |
| KIQEKEEWIKLDYHRRHNPKTNED [R3Q] | 4.6 |
| KIYEKEEWIKLDYHRRHNPKTNED [R3Y] | 4.29 |

| Variant | protein stability index |
| --- | --- |
| KITEKEEWIKLDYHRRHNPKTNED [R3T] | 4.61 |
| KIDEKEEWIKLDYHRRHNPKTNED [R3D] | 5.34 |
| KISEKEEWIKLDYHRRHNPKTNED [R3S] | 4.6 |
| KIEEKEEWIKLDYHRRHNPKTNED [R3E] | 5.08 |
| KINEKEEWIKLDYHRRHNPKTNED [R3N] | 4.72 |
| KIAEKEEWIKLDYHRRHNPKTNED [R3A] | 5.05 |
| KIWEKEEWIKLDYHRRHNPKTNED [R3W] | 4.21 |
| KIMEKEEWIKLDYHRRHNPKTNED [R3M] | 4.02 |
| KIGEKEEWIKLDYHRRHNPKTNED [R3G] | 5.16 |
| KIIEKEEWIKLDYHRRHNPKTNED [R3I] | 4.35 |
| KILEKEEWIKLDYHRRHNPKTNED [R3L] | 4.22 |
| KIPEKEEWIKLDYHRRHNPKTNED [R3P] | 4.97 |
| KIVEKEEWIKLDYHRRHNPKTNED [R3V] | 4.52 |
| KICEKEEWIKLDYHRRHNPKTNED [R3C] | 4.8 |
| CIREKEEWIKLDYHRRHNPKTNED [K1C] | 4.07 |
| HIREKEEWIKLDYHRRHNPKTNED [K1H] | 4.62 |
| GIREKEEWIKLDYHRRHNPKTNED [K1G] | 5.15 |
| SIREKEEWIKLDYHRRHNPKTNED [K1S] | 4.62 |
| RIREKEEWIKLDYHRRHNPKTNED [K1R] | 4.68 |
| MIREKEEWIKLDYHRRHNPKTNED [K1M] | 4.14 |
| IIREKEEWIKLDYHRRHNPKTNED [K1I] | 4.02 |
| AIREKEEWIKLDYHRRHNPKTNED [K1A] | 4.79 |
| DIREKEEWIKLDYHRRHNPKTNED [K1D] | 4.99 |
| YIREKEEWIKLDYHRRHNPKTNED [K1Y] | 2.98 |

| Variant | protein stability index |
| --- | --- |
| VIREKEEWIKLDYHRRHNPKTNED [K1V] | 4.52 |
| EIREKEEWIKLDYHRRHNPKTNED [K1E] | 4.62 |
| TIREKEEWIKLDYHRRHNPKTNED [K1T] | 4.87 |
| WIREKEEWIKLDYHRRHNPKTNED [K1W] | 3.75 |
| FIREKEEWIKLDYHRRHNPKTNED [K1F] | 2.67 |
| QIREKEEWIKLDYHRRHNPKTNED [K1Q] | 4.96 |
| NIREKEEWIKLDYHRRHNPKTNED [K1N] | 5.44 |
| LIREKEEWIKLDYHRRHNPKTNED [K1L] | 4.15 |
| PIREKEEWIKLDYHRRHNPKTNED [K1P] | 4.99 |
| KIRPKEEWIKLDYHRRHNPKTNED [E4P] | 4.02 |
| KIRMKEEWIKLDYHRRHNPKTNED [E4M] | 4.06 |
| KIRNKEEWIKLDYHRRHNPKTNED [E4N] | 4.67 |
| KIRCKEEWIKLDYHRRHNPKTNED [E4C] | 3.71 |
| KIRAKEEWIKLDYHRRHNPKTNED [E4A] | 4.38 |
| KIRHKEEWIKLDYHRRHNPKTNED [E4H] | 4.32 |
| KIRLKEEWIKLDYHRRHNPKTNED [E4L] | 3.81 |
| KIRYKEEWIKLDYHRRHNPKTNED [E4Y] | 4.03 |
| KIRSKEEWIKLDYHRRHNPKTNED [E4S] | 3.95 |
| KIRKKEEWIKLDYHRRHNPKTNED [E4K] | 3.86 |
| KIRDKEEWIKLDYHRRHNPKTNED [E4D] | 4.48 |
| KIRFKEEWIKLDYHRRHNPKTNED [E4F] | 3.84 |
| KIRGKEEWIKLDYHRRHNPKTNED [E4G] | 3.85 |
| KIRWKEEWIKLDYHRRHNPKTNED [E4W] | 3.75 |
| KIRIKEEWIKLDYHRRHNPKTNED [E4I] | 4 |

| Variant | protein stability index |
| --- | --- |
| KIRQKEEWIKLDYHRRHNPKTNED [E4Q] | 3.82 |
| KIRVKEEWIKLDYHRRHNPKTNED [E4V] | 3.32 |
| KIRTKEEWIKLDYHRRHNPKTNED [E4T] | 4 |
| KIRRKEEWIKLDYHRRHNPKTNED [E4R] | 3.99 |
| KIREIEEWIKLDYHRRHNPKTNED [K5I] | 2.39 |
| KIREGEEWIKLDYHRRHNPKTNED [K5G] | 4.6 |
| KIREVEEWIKLDYHRRHNPKTNED [K5V] | 3.4 |
| KIREHEEWIKLDYHRRHNPKTNED [K5H] | 4.51 |
| KIRETEEWIKLDYHRRHNPKTNED [K5T] | 4.21 |
| KIREREEWIKLDYHRRHNPKTNED [K5R] | 4.64 |
| KIRECEEWIKLDYHRRHNPKTNED [K5C] | 4.09 |
| KIREWEEWIKLDYHRRHNPKTNED [K5W] | 3.74 |
| KIREFEEWIKLDYHRRHNPKTNED [K5F] | 3.67 |
| KIREMEEWIKLDYHRRHNPKTNED [K5M] | 3.04 |
| KIRESEEWIKLDYHRRHNPKTNED [K5S] | 4.14 |
| KIREEEEWIKLDYHRRHNPKTNED [K5E] | 4.45 |
| KIRELEEWIKLDYHRRHNPKTNED [K5L] | 3.13 |
| KIRENEEWIKLDYHRRHNPKTNED [K5N] | 4.7 |
| KIREQEEWIKLDYHRRHNPKTNED [K5Q] | 4.93 |
| KIREPEEWIKLDYHRRHNPKTNED [K5P] | 4.63 |
| KIREAEEWIKLDYHRRHNPKTNED [K5A] | 3.99 |
| KIREDEEWIKLDYHRRHNPKTNED [K5D] | 4.51 |
